B1: GpH7-A5/GpH7-B3 variant Q295_06M/GpL16-k0 (antibody, human IgG1, kappa)
heavy 1: not shown
heavy 2: not shown
light: DIVMTQSPLSLPVTPGEPASISCQASESLVHSNRNTYLHWYLQKPGQSPQLLIYKVSNRFSGVPDRFSGSGSGTDFTLKISRVEAEDVGVYYCSQNTHVPPTFGQGTKVEIERTVAAPSVFIFPPSDEQLKSGTASVVCLLNNFYPREAKVQWKVDNALQSGNSQESVTEQDSKDSTYSLSSTLTLSKADYEKHKVYACEVTHQGLSSPVTKSFNRGEC
notes: He Ab; copies: 1 + 1 + 2
B2: GpH7-A5/GpH7-B3 variant Q295_10E/GpL16-k0 (antibody, human IgG1, kappa)
heavy 1: not shown
heavy 2: not shown
light: B1 light
notes: He Ab; copies: 1 + 1 + 2
B3: GpH7-A5/GpH7-B3 variant S239_19Q/GpL16-k0 (antibody, human IgG1, kappa)
heavy 1: not shown
heavy 2: not shown
light: B1 light
notes: He Ab; copies: 1 + 1 + 2
B4: GpH7-A5/GpH7-B3 variant Q295_13S/GpL16-k0 (antibody, human IgG1, kappa)
heavy 1: not shown
heavy 2: not shown
light: B1 light
notes: He Ab; copies: 1 + 1 + 2
B5: GpH7-A5/GpH7-B3 variant S239_09D/GpL16-k0 (antibody, human IgG1, kappa)
heavy 1: not shown
heavy 2: not shown
light: B1 light
notes: He Ab; copies: 1 + 1 + 2
B6: GpH7-A5/GpH7-B3 variant S324_01G/GpL16-k0 (antibody, human IgG1, kappa)
heavy 1: not shown
heavy 2: not shown
light: B1 light
notes: He Ab; copies: 1 + 1 + 2
B7: GpH7-A5/GpH7-B3 variant S298_01G/GpL16-k0 (antibody, human IgG1, kappa)
heavy 1: not shown
heavy 2: not shown
light: B1 light
notes: He Ab; copies: 1 + 1 + 2
B8: GpH7-A5/GpH7-B3 variant S298_12R/GpL16-k0 (antibody, human IgG1, kappa)
heavy 1: not shown
heavy 2: not shown
light: B1 light
notes: He Ab; copies: 1 + 1 + 2
B9: GpH7-A5/GpH7-B3 variant S324_19Q/GpL16-k0 (antibody, human IgG1, kappa)
heavy 1: not shown
heavy 2: not shown
light: B1 light
notes: He Ab; copies: 1 + 1 + 2
B10: GpH7-A5/GpH7-B3 variant S324_07I/GpL16-k0 (antibody, human IgG1, kappa)
heavy 1: not shown
heavy 2: not shown
light: B1 light
notes: He Ab; copies: 1 + 1 + 2
B11: GpH7-A5/GpH7-B3 variant S298_18N/GpL16-k0 (antibody, human IgG1, kappa)
heavy 1: not shown
heavy 2: not shown
light: B1 light
notes: He Ab; copies: 1 + 1 + 2
B12: GpH7-A5/GpH7-B3 variant S324_18N/GpL16-k0 (antibody, human IgG1, kappa)
heavy 1: not shown
heavy 2: not shown
light: B1 light
notes: He Ab; copies: 1 + 1 + 2
B13: GpH7-A5/GpH7-B3 variant S267_18N/GpL16-k0 (antibody, human IgG1, kappa)
heavy 1: not shown
heavy 2: not shown
light: B1 light
notes: He Ab; copies: 1 + 1 + 2
B14: GpH7-A5/GpH7-B3 variant S239_08L/GpL16-k0 (antibody, human IgG1, kappa)
heavy 1: not shown
heavy 2: not shown
light: B1 light
notes: He Ab; copies: 1 + 1 + 2
B15: GpH7-A5/GpH7-B3 variant S324_02A/GpL16-k0 (antibody, human IgG1, kappa)
heavy 1: not shown
heavy 2: not shown
light: B1 light
notes: He Ab; copies: 1 + 1 + 2
B16: GpH7-A5/GpH7-B3 variant S298_09D/GpL16-k0 (antibody, human IgG1, kappa)
heavy 1: not shown
heavy 2: not shown
light: B1 light
notes: He Ab; copies: 1 + 1 + 2
B17: GpH7-A5/GpH7-B3 variant S298_04F/GpL16-k0 (antibody, human IgG1, kappa)
heavy 1: not shown
heavy 2: not shown
light: B1 light
notes: He Ab; copies: 1 + 1 + 2
B18: GpH7-A5/GpH7-B3 variant S267_10E/GpL16-k0 (antibody, human IgG1, kappa)
heavy 1: not shown
heavy 2: not shown
light: B1 light
notes: He Ab; copies: 1 + 1 + 2
B19: GpH7-A5/GpH7-B3 variant S324_06M/GpL16-k0 (antibody, human IgG1, kappa)
heavy 1: not shown
heavy 2: not shown
light: B1 light
notes: He Ab; copies: 1 + 1 + 2
B20: GpH7-A5/GpH7-B3 variant S324_12R/GpL16-k0 (antibody, human IgG1, kappa)
heavy 1: not shown
heavy 2: not shown
light: B1 light
notes: He Ab; copies: 1 + 1 + 2
B21: GpH7-A5/GpH7-B3 variant S324_08L/GpL16-k0 (antibody, human IgG1, kappa)
heavy 1: not shown
heavy 2: not shown
light: B1 light
notes: He Ab; copies: 1 + 1 + 2
B22: GpH7-A5/GpH7-B3 variant S298_08L/GpL16-k0 (antibody, human IgG1, kappa)
heavy 1: not shown
heavy 2: not shown
light: B1 light
notes: He Ab; copies: 1 + 1 + 2
B23: GpH7-A5/GpH7-B3 variant S298_11K/GpL16-k0 (antibody, human IgG1, kappa)
heavy 1: not shown
heavy 2: not shown
light: B1 light
notes: He Ab; copies: 1 + 1 + 2
B24: GpH7-A5/GpH7-B3 variant Q295_07I/GpL16-k0 (antibody, human IgG1, kappa)
heavy 1: not shown
heavy 2: not shown
light: B1 light
notes: He Ab; copies: 1 + 1 + 2
B25: GpH7-A5/GpH7-B3 variant S267_19Q/GpL16-k0 (antibody, human IgG1, kappa)
heavy 1: not shown
heavy 2: not shown
light: B1 light
notes: He Ab; copies: 1 + 1 + 2
B26: GpH7-A5/GpH7-B3 variant S324_09D/GpL16-k0 (antibody, human IgG1, kappa)
heavy 1: not shown
heavy 2: not shown
light: B1 light
notes: He Ab; copies: 1 + 1 + 2
B27: GpH7-A5/GpH7-B3 variant Q295_16H/GpL16-k0 (antibody, human IgG1, kappa)
heavy 1: not shown
heavy 2: not shown
light: B1 light
notes: He Ab; copies: 1 + 1 + 2
B28: GpH7-A5/GpH7-B3 variant S298_19Q/GpL16-k0 (antibody, human IgG1, kappa)
heavy 1: not shown
heavy 2: not shown
light: B1 light
notes: He Ab; copies: 1 + 1 + 2
B29: GpH7-A5/GpH7-B3 variant S298_03V/GpL16-k0 (antibody, human IgG1, kappa)
heavy 1: not shown
heavy 2: not shown
light: B1 light
notes: He Ab; copies: 1 + 1 + 2
B30: GpH7-A5/GpH7-B3 variant S239_07I/GpL16-k0 (antibody, human IgG1, kappa)
heavy 1: not shown
heavy 2: not shown
light: B1 light
notes: He Ab; copies: 1 + 1 + 2
B31: GpH7-A5/GpH7-B3 variant S267_01G/GpL16-k0 (antibody, human IgG1, kappa)
heavy 1: not shown
heavy 2: not shown
light: B1 light
notes: He Ab; copies: 1 + 1 + 2
B32: GpH7-A5/GpH7-B3 variant S298_14T/GpL16-k0 (antibody, human IgG1, kappa)
heavy 1: not shown
heavy 2: not shown
light: B1 light
notes: He Ab; copies: 1 + 1 + 2
B33: GpH7-A5/GpH7-B3 variant S324_16H/GpL16-k0 (antibody, human IgG1, kappa)
heavy 1: not shown
heavy 2: not shown
light: B1 light
notes: He Ab; copies: 1 + 1 + 2
B34: GpH7-A5/GpH7-B3 variant S324_04F/GpL16-k0 (antibody, human IgG1, kappa)
heavy 1: not shown
heavy 2: not shown
light: B1 light
notes: He Ab; copies: 1 + 1 + 2
B35: GpH7-A5/GpH7-B3 variant S324_15Y/GpL16-k0 (antibody, human IgG1, kappa)
heavy 1: not shown
heavy 2: not shown
light: B1 light
notes: He Ab; copies: 1 + 1 + 2
B36: GpH7-A5/GpH7-B3 variant Q295_18N/GpL16-k0 (antibody, human IgG1, kappa)
heavy 1: not shown
heavy 2: not shown
light: B1 light
notes: He Ab; copies: 1 + 1 + 2
B37: GpH7-A5/GpH7-B3 variant S239_18N/GpL16-k0 (antibody, human IgG1, kappa)
heavy 1: not shown
heavy 2: not shown
light: B1 light
notes: He Ab; copies: 1 + 1 + 2
B38: GpH7-A5/GpH7-B3 variant Q295_11K/GpL16-k0 (antibody, human IgG1, kappa)
heavy 1: not shown
heavy 2: not shown
light: B1 light
notes: He Ab; copies: 1 + 1 + 2
B39: GpH7-A5/GpH7-B3 variant S298_16H/GpL16-k0 (antibody, human IgG1, kappa)
heavy 1: not shown
heavy 2: not shown
light: B1 light
notes: He Ab; copies: 1 + 1 + 2
B40: GpH7-A5/GpH7-B3 variant S298_15Y/GpL16-k0 (antibody, human IgG1, kappa)
heavy 1: not shown
heavy 2: not shown
light: B1 light
notes: He Ab; copies: 1 + 1 + 2
B41: GpH7-A5/GpH7-B3 variant Q295_15Y/GpL16-k0 (antibody, human IgG1, kappa)
heavy 1: not shown
heavy 2: not shown
light: B1 light
notes: He Ab; copies: 1 + 1 + 2
B42: GpH7-A5/GpH7-B3 variant S239_14T/GpL16-k0 (antibody, human IgG1, kappa)
heavy 1: not shown
heavy 2: not shown
light: B1 light
notes: He Ab; copies: 1 + 1 + 2
B43: GpH7-A5/GpH7-B3 variant S298_02A/GpL16-k0 (antibody, human IgG1, kappa)
heavy 1: not shown
heavy 2: not shown
light: B1 light
notes: He Ab; copies: 1 + 1 + 2
B44: GpH7-A5/GpH7-B3 variant Q295_08L/GpL16-k0 (antibody, human IgG1, kappa)
heavy 1: not shown
heavy 2: not shown
light: B1 light
notes: He Ab; copies: 1 + 1 + 2
B45: GpH7-A5/GpH7-B3 variant Q295_12R/GpL16-k0 (antibody, human IgG1, kappa)
heavy 1: not shown
heavy 2: not shown
light: B1 light
notes: He Ab; copies: 1 + 1 + 2
B46: GpH7-A5/GpH7-B3 variant S267_02A/GpL16-k0 (antibody, human IgG1, kappa)
heavy 1: not shown
heavy 2: not shown
light: B1 light
notes: He Ab; copies: 1 + 1 + 2
B47: GpH7-A5/GpH7-B3 variant S298_07I/GpL16-k0 (antibody, human IgG1, kappa)
heavy 1: not shown
heavy 2: not shown
light: B1 light
notes: He Ab; copies: 1 + 1 + 2
B48: GpH7-A5/GpH7-B3 variant Q295_14T/GpL16-k0 (antibody, human IgG1, kappa)
heavy 1: not shown
heavy 2: not shown
light: B1 light
notes: He Ab; copies: 1 + 1 + 2
B49: GpH7-A5/GpH7-B3 variant S298_06M/GpL16-k0 (antibody, human IgG1, kappa)
heavy 1: not shown
heavy 2: not shown
light: B1 light
notes: He Ab; copies: 1 + 1 + 2
B50: GpH7-A5/GpH7-B3 variant S324_11K/GpL16-k0 (antibody, human IgG1, kappa)
heavy 1: not shown
heavy 2: not shown
light: B1 light
notes: He Ab; copies: 1 + 1 + 2
B51: GpH7-A5/GpH7-B3 variant S239_02A/GpL16-k0 (antibody, human IgG1, kappa)
heavy 1: not shown
heavy 2: not shown
light: B1 light
notes: He Ab; copies: 1 + 1 + 2
B52: GpH7-A5/GpH7-B3 variant S267_06M/GpL16-k0 (antibody, human IgG1, kappa)
heavy 1: not shown
heavy 2: not shown
light: B1 light
notes: He Ab; copies: 1 + 1 + 2
B53: GpH7-A5/GpH7-B3 variant S324_14T/GpL16-k0 (antibody, human IgG1, kappa)
heavy 1: not shown
heavy 2: not shown
light: B1 light
notes: He Ab; copies: 1 + 1 + 2
B54: GpH7-A5/GpH7-B3 variant S239_01G/GpL16-k0 (antibody, human IgG1, kappa)
heavy 1: not shown
heavy 2: not shown
light: B1 light
notes: He Ab; also called 3239_01G; copies: 1 + 1 + 2
B55: GpH7-A5/GpH7-B3 variant S267_09D/GpL16-k0 (antibody, human IgG1, kappa)
heavy 1: not shown
heavy 2: not shown
light: B1 light
notes: He Ab; copies: 1 + 1 + 2
B56: GpH7-A5/GpH7-B3 variant S239_03V/GpL16-k0 (antibody, human IgG1, kappa)
heavy 1: not shown
heavy 2: not shown
light: B1 light
notes: He Ab; copies: 1 + 1 + 2
B57: GpH7-A5/GpH7-B3 variant S324_10E/GpL16-k0 (antibody, human IgG1, kappa)
heavy 1: not shown
heavy 2: not shown
light: B1 light
notes: He Ab; copies: 1 + 1 + 2
B58: GpH7-A5/GpH7-B3 variant S239_10E/GpL16-k0 (antibody, human IgG1, kappa)
heavy 1: not shown
heavy 2: not shown
light: B1 light
notes: He Ab; copies: 1 + 1 + 2
B59: GpH7-A5/GpH7-B3 variant S239_06M/GpL16-k0 (antibody, human IgG1, kappa)
heavy 1: not shown
heavy 2: not shown
light: B1 light
notes: He Ab; copies: 1 + 1 + 2
B60: GpH7-A5/GpH7-B3 variant S324_03V/GpL16-k0 (antibody, human IgG1, kappa)
heavy 1: not shown
heavy 2: not shown
light: B1 light
notes: He Ab; copies: 1 + 1 + 2
B61: GpH7-A5/GpH7-B3 variant Q295_09D/GpL16-k0 (antibody, human IgG1, kappa)
heavy 1: not shown
heavy 2: not shown
light: B1 light
notes: He Ab; copies: 1 + 1 + 2

molecular target: T1, FcγRIIIa extracellular domain, C-terminal His tag (human, UniProt P08637 17-208); assay: SPR, binding activity relative to GpH7-A5/GpH7-B3/GpL16-k0 (=100)
T1 construct: extracellular domain; also called 3a
T1 sequence (P08637 other isoform, or with tags, fused parts or gaps): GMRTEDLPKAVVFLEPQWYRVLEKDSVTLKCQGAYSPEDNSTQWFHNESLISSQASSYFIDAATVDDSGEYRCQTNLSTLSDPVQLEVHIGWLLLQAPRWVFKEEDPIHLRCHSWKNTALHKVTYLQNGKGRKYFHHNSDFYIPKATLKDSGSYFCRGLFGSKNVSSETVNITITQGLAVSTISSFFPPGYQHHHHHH

Binder	He/Con 3a [%]
B1	100
B2	105
B3	53.8
B4	90.4
B5	156
B6	114
B7	74.9
B8	52.1
B9	96.2
B10	101
B11	51.4
B12	103
B13	52
B14	90
B15	113
B16	62.7
B17	77.6
B18	90.9
B19	124
B20	98.1
B21	95.5

Binder	He/Con 3a [%]
B22	69.2
B23	50
B24	101
B25	64.3
B26	110
B27	80.2
B28	70.6
B29	103
B30	75
B31	53.3
B32	106
B33	113
B34	99.3
B35	110
B36	85.7
B37	104
B38	81.8
B39	71.9
B40	80.6
B41	81.5
B42	93

Binder	He/Con 3a [%]
B43	151
B44	120
B45	73.2
B46	149
B47	90.7
B48	120
B49	87.2
B50	90.2
B51	70.9
B52	65.3
B53	112
B54	72
B55	179
B56	72.4
B57	108
B58	171
B59	73.9
B60	101
B61	85.6

Reference: patent publication US20260167699A1 (Chugai, published 2026)
